Data as given in the RNAGym collection of RNA variant scans (doi:10.1073/pnas.2313332121).

B1: TPR t1 (parent)
chain: GACCAAUCUGCCCUCAGAGCUCGAGAACAUCUUCGGAUGCAGAGGAGGCAGGCUUCGGUGGCGCGAUAGCGCCAACGUCCUCAACCUCCAAUGCAUCCCACCACAUGAUGAUGCCUGAAGAGCCUUGGUUUUUUG

Variants of: B1
Assay: polymerase ribozyme fitness, log enrichment relative to wild type (log ratio); higher = more active; in vitro selection for triplet polymerase activity
Procedure, shortened: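 PCR was used to build mutant libraries for each subunit of a heterodimeric triplet polymerase ribozyme, which were then transcribed. A single in vitro selection round, in triplicate, used a frozen incubation at −7 °C and recovered extended constructs by gel excision, streptavidin beads and RT-PCR. Fitness is the logarithm of genotype enrichment relative to wild-type enrichment, averaged over replicates with inverse-variance weights. The logarithm is base 2, and after Illumina sequencing only genotypes with ≥10 input reads and ≥1 read per output were kept.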

| Variant | polymerase ribozyme fitness (log ratio) |
| --- | --- |
| GACCAAUCGGCACUCAGAGCUCGAGAACAUCUUCGGAUGCACAGGAGGCAGGCUUCGGUGCCGCGAUAGCGCCAACGUCCUCAACCUCCAAUGCAUCCCACCACAUGAUGAUGCUUGAAGAGCCUUGGUUUUUUG [U9G C12A G42C G61C C115U] | -3.63 |
| GAUCAAUCUGCCCUCAGAGCUCGAGAGCAUCUUCGGAUGCAGAGGAGGCAGGCUUCGGUGGCGCGAUAGCGCCAACGUCCUCAACCUCCAAUGCAUCCCACCACAUGAUGAUGCCUGAAGAGCCUUGGUUUUUUG [C3U A27G] | -2.38 |
| GACCAAUCUGCCCUCAGAGCUCGAGAACAUCUUCGGAUGCACAGGAGGCUGGCUUCGGUGGCGCGAUAGCGCCAACGUCCUCAACCUCCAAUGCAUCCCACCACAUGAUGAUGCCUGAAGAGCCUUGGUUUUUUG [G42C A50U] | -3.32 |
| GACCAAUCUGCCCUCAGAGCUAGAGAACGUCUUCGGAUGAAGAGGAGGCAGGCUUCGGUGGCUCGAUAGCGCCUACGUCCUCAACCUCCAAUACAUCCCACCACAUGAUGAUCCCUGAAUAGCCUUGGUUUUUUG [C22A A29G C40A G63U A74U G93A G113C G120U] | -7.43 |
| GACCAAUCGGCCCUCAGAGCUCGAGAACAUCUUCGGAUGCAGAGGAGGCAGGCUUCGGUGGCGCGAUAGCGCCAACGUCCUCAACCUCCAAUGCAUCCCACCACAUGACGAUGCCUGAAGAGCCUUGGUUUUUUG [U9G U109C] | -3.57 |
| GACCAAUCUGCCCUCAGAGCUCGAGAACAUCUUCGGAUGCAGAGGAGGCAGGCUUCGGUGGCGCGAUAGCGUCAACGUCCUCAACCUCCAAUCCAUCCCACCACAUGAUGAUGCCUGAAGAGCCUUGGUUUUUUG [C72U G93C] | -0.856 |
| GACCAAUAUGCCCUCAGAGCUCGAGAACAUCUUCGGAUCCAGAGGAGGCAGGGUUCGGUGCCGCGAUAGCGCCAACGUCCUCAACCUCCAAUGCAUCCCACCACAUGAUGAUGCCUGAAGAGCCUUGGUUUUUUG [C8A G39C C53G G61C] | -0.548 |
| GACCAAUCUUCCCUCAGAGCUCGAGAACAUCUUCGGAUGCAGAGGAGGCAGGCUUCGGUGGCACGAUAGCGCCAACGUCCUCAACCUCCAAUGCAUCCCACCACAUGAUGAUGCCUGAAGAGCCUUGGUUUUUUG [G10U G63A] | -1.08 |
| GACCAACCUGCCCUCAGAGCUCGAGAACAUCUUCGGAUGCAGAGGAGGCAGGCUUCGGUGGCGCGAUAGCGCCCACGUCCUCAACCUCCAAUGCAUCUCACCACAUGAUGAAGCCUGAAGAGCCUUGGUUUUUUG [U7C A74C C98U U112A] | -2.74 |
| GACCAAUCUGCCCUCAGAGCUCGAGAACAUCUUCGGAUGCAGAGGGGGCAGGCUUCGGUGGCGCGAUUGCGCCAACGUCCUCAACCUCCAAUGCAUCCCACCACAUGAUGAUGGCUGAAGAGCCUUGGUUUUUUG [A46G A68U C114G] | -5.84 |
| GACCAAUCUGCCCUCAGAGCUCGAGAACAUCUUCGGAUGCAGAGGAGGCAGGCAUCGGUGGCGCGAUAGCCCCAACGUCCUCAACCUCUAAUGCAUCCCACCACAUGAUGAUGCCUGAAGAGCCUUGGAUUUUUG [U54A G71C C89U U129A] | -2.49 |
| GACCAAUCUGCCCUCAGAGGUCGAGAACAUCUUCGGAUGCAGAGGAGGCAGGCUUCGGUGGAGCGAUAGCGCCAACGUCCUCAACCUCCAAUGCAUCACACCACAUGAUCAUGACUGAAGAGCCUUGGUUUUUUG [C20G C62A C98A G110C C114A] | -8.01 |
| GACCAAUCUGCCCUCAGAGCUCGAGAACAUCUUCGGAUGCAGAGGAGGCAGGGUUCGGUGACGCGAUAGCGCCAACGUCCUCAACCUCCAAUGCAUCCCACCACAUGAUGAUGCCUGAAGAGCCUUGGUUUUUUG [C53G G61A] | -1.75 |
| GACCAAUCUGCCCUCAGAGCUCGAGAACUUCUUCGGAUGCGGAGGAGGCAGGGUUCGGUGGCGCGAUAGCGCCAACGUCCUCAACCUCCAAUGCAUCCCACCACAUGAUGAUGCCUGAAGAGCCUUGGUUUUUUG [A29U A41G C53G] | -2.64 |
| GACCAAUCUGCCCUCAGAGCUCGAGAACAUCUUCGGAUGCAGAGGAGGCAGGCUUCGGUGGCGCGAUAGCGCCAACGUCCUGAACCUCCACUGCAUCCCACCACAUGAUGAUGCCUGAAGAGCCUUGGUUUUUUG [C82G A91C] | -2.29 |
| GACCAAUCUGGCCUCAGAGCUCGAGAACAUCUUCGGAUGCAGAGGAGGCAGCCUUCGGUGGCGCGAUAGCGCCAACGUCCUCAACCUCCAAUGCAUCCCACCACAUGAUGAUGCCUAAAGAGCCUUGGUUUUUUG [C11G G52C G117A] | -1.05 |
| GACCAAUGUGCCCUCAGAGCUCGAGAUCAUCUUCGGAUGCAGAGGACGCAGGCUUCGGUGGCGCGAUAGCGCCAACGUCCUCAACCUCCAAUGCAUCCCACCACAUGAUGAUGCCUGAAGAGCCUUGGUUUUUUG [C8G A27U G47C] | -3.02 |
| GACCAAUCUGCCCUCAGAGCUCGAGAACAUCUUCGGAUCCAGAGGAGUCAGGCUUCGGUGGCGCGAUAGCGCCAACGUCCUCAACCUCCAAUGCAUCCCACCACAUGAUGUUGCCUGAAGAGCCUUGGUUUUUUG [G39C G48U A111U] | -4.49 |
| GACCCAUCUGCCCUCAGAGCUCGAGAACAUCUUCGGAUGCUGAGGAGGCAGGCUUCGGUGGCGCGAUAGCGCCAACGUCCUCAACCUCCAAUGCAUCCCACCACAUGAUGAUGCCUGAAGAGCCUUGGUUUUUUG [A5C A41U] | -2.41 |
| GACCAAUCUGCCCUCAGAGCUCGAGAACAUCUUCGGAUGCAGAGGUGGCAGGCUUUGGUGGCGCGAUAGCGGCAACGUCCUCAACCUCCAAUGCAUCCCACCACAUGAUGAUGCCUGAAGAGGCUUGGUUUUUUG [A46U C56U C72G C123G] | -3.53 |
| GACCAAUCUGCCCUCAGAGCUCGAGAACAUCUUCGGAUGUAGAGGAGGCAGUCUUCGGUGGCGCGAUAGCGCCAACGUCCUCAACCUUCAAUGCAUCCCACCACAUGAUGAUGCCUGAAGAGCCUUGGUUUUUUG [C40U G52U C88U] | -1.18 |
